Data set [1] addresses T1, recombinant rat thioredoxin-fused AR ligand binding domain (PanVera, 48.4 kDa), P15207.
T1 chain: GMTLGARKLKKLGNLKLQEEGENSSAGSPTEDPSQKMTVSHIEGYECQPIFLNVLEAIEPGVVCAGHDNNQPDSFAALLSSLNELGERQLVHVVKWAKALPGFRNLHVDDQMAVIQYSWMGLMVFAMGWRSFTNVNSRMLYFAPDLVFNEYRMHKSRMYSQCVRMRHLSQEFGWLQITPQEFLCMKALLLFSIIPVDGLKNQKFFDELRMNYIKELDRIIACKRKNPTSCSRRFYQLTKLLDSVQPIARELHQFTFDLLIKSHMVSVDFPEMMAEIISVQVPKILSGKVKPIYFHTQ

The target of data set [2] is T2, recombinant rat thioredoxin-fused AR ligand binding domain (PanVera, 48.4 kDa) (rat, UniProt P15207 606-902).
T2 sequence (looked up): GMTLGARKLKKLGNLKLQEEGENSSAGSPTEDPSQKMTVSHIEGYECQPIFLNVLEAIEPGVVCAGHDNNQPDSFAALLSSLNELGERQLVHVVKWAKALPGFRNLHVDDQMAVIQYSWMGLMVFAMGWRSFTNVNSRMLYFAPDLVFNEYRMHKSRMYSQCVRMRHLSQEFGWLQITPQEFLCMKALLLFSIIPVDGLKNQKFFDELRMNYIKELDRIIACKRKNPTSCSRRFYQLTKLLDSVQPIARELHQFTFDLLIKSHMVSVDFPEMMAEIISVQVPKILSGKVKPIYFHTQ
Briefly: cell-based or functional assay.

B1: purified His-tagged-DDC protein (6x-His N-terminal fusion of dopa decarboxylase) (enzyme, human, UniProt P20711 2-480, looked up, not shown: small tags and cut ends)
chain: NASEFRRRGKEMVDYMANYMEGIEGRQVYPDVEPGYLRPLIPAAAPQEPDTFEDIINDVEKIIMPGVTHWHSPYFFAYFPTASSYPAMLADMLCGAIGCIGFSWAASPACTELETVMMDWLGKMLELPKAFLNEKAGEGGGVIQGSASEATLVALLAARTKVIHRLQAASPELTQAAIMEKLVAYSSDQAHSSVERAGLIGGVKLKAIPSDGNFAMRASALQEALERDKAAGLIPFFMVATLGTTTCCSFDNLLEVGPICNKEDIWLHVDAAYAGSAFICPEFRHLLNGVEFADSFNFNPHKWLLVNFDCSAMWVKKRTDLTGAFRLDPTYLKHSHQDSGLITDYRHWQIPLGRRFRSLKMWFVFRMYGVKGLQAYIRKHVQLSHEFESLVRQDPRFEICVEVILGLVCFRLKGSNKVNEALLQRINSAKKIHLVPCHLRDKFVLRFAICSRTVESAHVQRAWEHIKELAADVLRAERE
In the case of B1, the “R1881 concentration required to 50% saturate total AR-LBD protein” value in data set [1] is “in the absence of His-DDC, an R1881 concentration of 883 nM was required to 50% saturate total AR-LBD protein, while in the presence of His-DDC a lower androgen amount of 425 nM was necessary”. Besides, in data set [2], the “apparent affinity for androgen (R1881) by the AR-LBD, hydroxylapatite pulldown ligand binding assay” value came to 2.1 fold; the “increase in bound R1881 at 100 nM R1881” value came out at 1.75 fold; the “increase in bound R1881 at 1000 nM R1881” value came out at 1.71 fold.

(Values after patent US20100048709A1 (UNIVERSITY OF BRITISH COLUMBIA, published 2010).)
